According to patent US20030092091A1 (GlaxoSmithKline, published 2003):

Tests used:
[1] = target: SAF-2 (Siglec-8 / Siglec-8L) on the cell surface (human) (UniProt Q9NYZ4); test: cell-based or functional assay
[2] = target: T1, SAF-2 polypeptide (extracellular domain of sialoadhesin factor-2, released from SAF-2/Fc by Factor Xa … (human, UniProt Q9NYZ4 17-363)); test: BIAcore SPR. The mAb was captured on a rabbit anti-mouse IgG Fc surface and SAF-2 was injected as analyte. KD was calculated from the rates.
T1 construct: extracellular domain; The BIAcore analyte is printed only as 'SAF-2 (diluted in HBS buffer)'; Residues left over from the cleavage site are not described; also called Siglec-8
Method: (§1) Kinetic data was evaluated using relationships described previously (Karlsson, et al. (1991) J. Immunol. Meth. 145:229). The mAb (diluted in HBS buffer, 10 mM HEPES, 150 mM NaCl, 0.01% Tween-20, pH 7.4) was injected over a rabbit anti-mouse IgG Fe surface, followed by buffer flow, and the RU was recorded. SAF-2 (diluted in HBS buffer) was then injected for 180 seconds, followed by a buffer flow for 300 seconds, and the RU was recorded. The sensor chip surface was regenerated by an injection of 0.1 M phosphoric acid. The on-rates (Kₐ) and off-rates (Kd) of binding were calculated using BIAcore (Uppswala, Sweden) software.

[3] = target: T1, SAF-2 polypeptide (extracellular domain …); test: BIAcore SPR. The mAb was captured on a rabbit anti-mouse IgG Fc surface and SAF-2 was injected as analyte.
Method: as §1

T1 sequence (Q9NYZ4 17-363): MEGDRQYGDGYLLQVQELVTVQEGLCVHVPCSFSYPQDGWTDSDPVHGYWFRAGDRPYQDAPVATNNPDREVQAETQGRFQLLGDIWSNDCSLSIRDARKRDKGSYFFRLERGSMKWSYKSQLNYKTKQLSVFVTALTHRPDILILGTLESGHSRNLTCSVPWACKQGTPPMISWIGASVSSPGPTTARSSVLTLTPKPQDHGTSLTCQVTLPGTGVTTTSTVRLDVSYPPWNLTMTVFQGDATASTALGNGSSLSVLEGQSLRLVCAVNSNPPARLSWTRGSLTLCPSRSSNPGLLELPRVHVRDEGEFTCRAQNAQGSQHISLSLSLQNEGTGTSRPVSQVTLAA
Chain of SAF-2 (Siglec-8 / Siglec-8L) on the cell surface (human) (Q9NYZ4 17-499): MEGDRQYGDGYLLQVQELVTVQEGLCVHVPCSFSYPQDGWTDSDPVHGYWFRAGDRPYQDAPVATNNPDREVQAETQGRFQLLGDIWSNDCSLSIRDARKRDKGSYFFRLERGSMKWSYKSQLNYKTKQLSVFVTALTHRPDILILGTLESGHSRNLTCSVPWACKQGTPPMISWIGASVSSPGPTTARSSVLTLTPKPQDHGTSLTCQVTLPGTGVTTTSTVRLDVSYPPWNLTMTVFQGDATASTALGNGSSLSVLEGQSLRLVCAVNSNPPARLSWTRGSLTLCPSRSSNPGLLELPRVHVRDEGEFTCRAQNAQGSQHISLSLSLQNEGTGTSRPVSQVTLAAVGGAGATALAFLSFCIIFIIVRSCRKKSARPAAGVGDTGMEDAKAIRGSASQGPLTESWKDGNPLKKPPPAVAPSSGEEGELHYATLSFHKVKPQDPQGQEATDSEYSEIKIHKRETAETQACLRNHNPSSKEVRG

Row | apoptosis (annexin-V) of IL-5-primed eosinophils, 2E2 mAb alone [1] [%] | apoptosis (annexin-V) of unprimed eosinophils, 2E2 and secondary Ab [1] [%] | Kd [2] [pM] | koff [3] [s⁻¹] | kon [3] [M⁻¹ s⁻¹] | Binder | eosinophil death at 48-72 h of culture (erythrosin-B dye exclusion), 2E2 plus secondary polyclonal Ab [1] [%] | eosinophil death at 24 h of culture (erythrosin-B dye exclusion), 2E2 plus secondary polyclonal Ab [1] [%]
1 | 69 | 72 |  |  |  | 2E2 mAb (antibody, from another filing, V domains shown) VH: VQLKRASGPGLVAPSQSLSITCTVSGFSLTIYGAHWVRQPPGKGLEWLGVIWAGGSTNYNSALMSRLSISKDNSKSQVFLKINSLQTDDTALYYCARDGSSPYYYSMEYWGQGTSVTVSS VL: QIILTQSPAIMSASPGEKVSITCSATSSVSYMHWFQQKPGTSPKLWIYSTSNLASGVPVRFSGSGSGTSYSLTISRMEAEDAATYYCQQRSSYPFTFGSGTKLEIKA | > 90 | 68
2 |  |  | 200 | 4.3e-05 | 220000 | monoclonal antibody 2C4 (antibody, IgG1, V domains shown, also called mAb 2C4) VH: QVQLKESGPGLVAPSQSLSITCTVSGFSLIYGAHWVRQPPGKGLEWLGVIWAGGSTNYNSALMSRLSISKDNSKSQVFLKINSLQTDDTALYYCARDGSSPYYYSMEYWGQGTSVTVSS VL: EIILTQSPAIMSASPGEKVSITCSATSSVSYMHWFQQKPGTSPKLWIYSTSNLASGVPVRFSGSGSGTSYSLTISRMEAEDAATYYCQQRSSYPFTFGSGTKLEIKR |  | 
